This test concerns the target T1, Notch2 (Leu26–Gln530), recombinant protein (UniProt Q04721 26-530).
T1 chain: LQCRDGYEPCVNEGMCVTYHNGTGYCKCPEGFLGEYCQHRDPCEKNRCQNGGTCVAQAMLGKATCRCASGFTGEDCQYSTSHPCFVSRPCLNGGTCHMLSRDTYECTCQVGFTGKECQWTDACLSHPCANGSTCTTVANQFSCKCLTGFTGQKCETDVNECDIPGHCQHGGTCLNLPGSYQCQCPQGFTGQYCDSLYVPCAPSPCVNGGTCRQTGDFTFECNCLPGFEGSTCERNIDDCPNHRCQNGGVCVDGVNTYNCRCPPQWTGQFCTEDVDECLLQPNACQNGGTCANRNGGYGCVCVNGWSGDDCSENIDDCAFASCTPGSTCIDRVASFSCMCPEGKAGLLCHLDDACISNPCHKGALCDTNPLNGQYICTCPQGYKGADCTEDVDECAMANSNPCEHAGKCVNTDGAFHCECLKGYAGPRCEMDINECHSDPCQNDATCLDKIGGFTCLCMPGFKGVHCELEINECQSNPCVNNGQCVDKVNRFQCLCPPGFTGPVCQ
As to the kind of experiment: BLI. In general terms: In BLI a coated tip is dipped into the sample, and binding shifts an interference pattern.

The results in this text go back to PMC9981700 (2023).

B1: Fibulin2 (Ala28–Leu1184), recombinant protein (natural protein)
chain: APRQDCTGVECPPLENCIEEALEPGACCATCVQQGCACEGYQYYDCLQGGFVRGRVPAGQSYFVDFGSTECSCPPGGGKISCQFMLCPELPPNCIEAVVVADSCPQCGQVGCVHAGHKYAAGHTVHLPPCRACHCPDAGGELICYQLPGCHGNFSDAEEGDPERHYEDPYSYDQEVAEVEAATALGGEVQAGAVQAGAGGPPAALGGGSQPLSTIQAPPWPAVLPRPTAAAALGPPAPVQAKARRVTEDSEEEEEEEEEREEMAVTEQLAAGGHRGLDGLPTTAPAGPSLPIQEERAEAGARAEAGARPEENLILDAQATSRSTGPEGVTHAPSLGKAALVPTQAVPGSPRDPVKPSPHNILSTSLPDAAWIPPTREVPRKPQVLPHSHVEEDTDPNSVHSIPRSSPEGSTKDLIETCCAAGQQWAIDNDECLEIPESGTEDNVCRTAQRHCCVSYLQEKSCMAGVLGAKEGETCGAEDNDSCGISLYKQCCDCCGLGLRVRAEGQSCESNPNLGYPCNHVMLSCCEGEEPLIVPEVRRPPEPAAAPRRVSEAEMAGREALSLGTEAELPNSLPGDDQDECLLLPGELCQHLCINTVGSYHCACFPGFSLQDDGRTCRPEGHPPQPEAPQEPALKSEFSQVASNTIPLPLPQPNTCKDNGPCKQVCSTVGGSAICSCFPGYAIMADGVSCEDINECVTDLHTCSRGEHCVNTLGSFHCYKALTCEPGYALKDGECEDVDECAMGTHTCQPGFLCQNTKGSFYCQARQRCMDGFLQDPEGNCVDINECTSLSEPCRPGFSCINTVGSYTCQRNPLICARGYHASDDGTKCVDVNECETGVHRCGEGQVCHNLPGSYRCDCKAGFQRDAFGRGCIDVNECWASPGRLCQHTCENTLGSYRCSCASGFLLAADGKRCEDVNECEAQRCSQECANIYGSYQCYCRQGYQLAEDGHTCTDIDECAQGAGILCTFRCLNVPGSYQCACPEQGYTMTANGRSCKDVDECALGTHNCSEAETCHNIQGSFRCLRFECPPNYVQVSKTKCERTTCHDFLECQNSPARITHYQLNFQTGLLVPAHIFRIGPAPAFTGDTIALNIIKGNEEGYFGTRRLNAYTGVVYLQRAVLEPRDFALDVEMKLWRQGSVTTFLAKMHIFFTTFAL
For B1, the Kd stood at 1.22 nM.

In general, Kd refers to the equilibrium constant for the complex coming apart.
